Experimental findings from PMC6087429 (Structure(London, England:1993), 2018) are described below.

The target of this test is NDR1 MBD and kinase domain (NDR1^MBD-KD, residues 12-418), wild type (human, UniProt Q15208 12-418). The test is described as follows: HDX-MS.
NDR1 MBD and kinase domain (NDR1^MBD-KD, residues 12-418), wild type, sequence (Q15208 12-418): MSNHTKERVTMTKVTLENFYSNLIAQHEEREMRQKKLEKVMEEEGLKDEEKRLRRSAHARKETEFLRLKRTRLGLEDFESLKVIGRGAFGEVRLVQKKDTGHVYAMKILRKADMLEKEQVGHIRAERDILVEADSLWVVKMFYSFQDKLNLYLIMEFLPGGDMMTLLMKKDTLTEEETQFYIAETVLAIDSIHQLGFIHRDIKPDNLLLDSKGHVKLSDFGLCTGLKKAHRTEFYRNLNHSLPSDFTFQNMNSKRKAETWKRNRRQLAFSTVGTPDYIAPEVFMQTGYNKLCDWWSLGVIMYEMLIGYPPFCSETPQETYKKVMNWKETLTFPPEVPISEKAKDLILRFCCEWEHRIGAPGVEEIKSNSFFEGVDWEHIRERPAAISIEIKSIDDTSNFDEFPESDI

B1: MOB1A (amino acids 2-216), recombinant (natural protein, human, UniProt Q9H8S9 2-216, looked up)
chain: SFLFSSRSSKTFKPKKNIPEGSHQYELLKHAEATLGSGNLRQAVMLPEGEDLNEWIAVNTVDFFNQINMLYGTITEFCTEASCPVMSAGPRYEYHWADGTNIKKPIKCSAPKYIDYLMTWVQDQLDDETLFPSKIGVPFPKNFMSVAKTILKRLFRVYAHIYHQHFDSVMQLQEEAHLNTSFKHFIFFVQEFNLIDRRELAPLQELIEKLGSKDR
With B1, the binding result is “binds”.
